Here are results for six molecules from patent publication US12723106 (dated 2026).

Like-named read-outs stand apart in the source and are kept apart here.

By Kd is commonly meant a measure of binding affinity in units of concentration.

Assay [1] has as its target T1, human IL4 (human, UniProt P05112).
T1 chain: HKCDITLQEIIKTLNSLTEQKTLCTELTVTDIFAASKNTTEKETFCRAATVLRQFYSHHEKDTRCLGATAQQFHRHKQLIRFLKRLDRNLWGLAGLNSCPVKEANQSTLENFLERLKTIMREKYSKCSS
Description: SPR. A general note: In SPR one partner is held on a chip, and binding of the other changes the refractive index at the surface.

The target of assay [2] is T1, human IL4. In words: SPR.

B1: sLC-Tandem-(anti-IL4xanti-IL13)-ΔPCL1-huIgG1, IL4 arm (antibody)
chain 1: not shown
chain 2: DIQMTQSPASLSVSVGDTITLTCHASQNIDVWLSWFQQKPGNIPKLLIYKASNLHTGVPSRFSGSGSGTGFTLTISSLQPEDIATYYCQQAHSYPFTFGGGTKLEIKRTVAAPSVFIFPPSDEQLKSGTASVVCLLNNFYPREAKVQWKVDNALQSGNSQESVTEQDSKDSTYSLSSTLTLSKADYEKHKVYACEVTHQGLSSPVTKSFNRGEC
As to B1, the Kd is 2.75 pM in assay [1] and 2.29 pM in assay [2].

B2: sLC-Tandem-(anti-IL4xanti-IL13)-PCL1-huIgG1, IL4 arm (antibody)
chain 1: not shown
chain 2: DIQMTQSPASLSVSVGDTITLTCHASQNIDVWLSWFQQKPGNIPKLLIYKASNLHTGVPSRFSGSGSGTGFTLTISSLQPEDIATYYCQQAHSYPFTFGGGTKLEIKRTVAAPSVFIFPPSDEQLKSGTASVVCLLNNFYPREAKVQWKVDNALQSGNSQESVTEQDSKDSTYSLSSTLTLSKADYEKHKVYACEVTHQGLSSPVTKSFNRGEC
In the case of B2, the Kd stood at 1.42 pM in assay [1] and 0.901 pM in assay [2].

B3: sLC-Tandem-(anti-IL4xanti-IL13)-PCL2-huIgG1, IL4 arm (antibody)
chain 1: not shown
chain 2: DIQMTQSPASLSVSVGDTITLTCHASQNIDVWLSWFQQKPGNIPKLLIYKASNLHTGVPSRFSGSGSGTGFTLTISSLQPEDIATYYCQQAHSYPFTFGGGTKLEIKRTVAAPSVFIFPPSDEQLKSGTASVVCLLNNFYPREAKVQWKVDNALQSGNSQESVTEQDSKDSTYSLSSTLTLSKADYEKHKVYACEVTHQGLSSPVTKSFNRGEC
As for B3, the Kd in assay [1] turned out to be 1.33 pM; in assay [2], 1.05 pM.

B4: sLC-Tandem-(anti-IL4xanti-IL13)-His8-PCL1-huIgG1 with Furin, IL4 arm (antibody)
chain 1: not shown
chain 2: DIQMTQSPASLSVSVGDTITLTCHASQNIDVWLSWFQQKPGNIPKLLIYKASNLHTGVPSRFSGSGSGTGFTLTISSLQPEDIATYYCQQAHSYPFTFGGGTKLEIKRTVAAPSVFIFPPSDEQLKSGTASVVCLLNNFYPREAKVQWKVDNALQSGNSQESVTEQDSKDSTYSLSSTLTLSKADYEKHKVYACEVTHQGLSSPVTKSFNRGEC
Consider B4, for which the equilibrium dissociation constant (Kd) in assay [2] came out at 1.53 pM.

B5: Tandem-(anti-IL4xanti-IL13)-huIgG1, IL4 arm (antibody)
chain 1: not shown
chain 2: DIQMTQSPASLSVSVGDTITLTCHASQNIDVWLSWFQQKPGNIPKLLIYKASNLHTGVPSRFSGSGSGTGFTLTISSLQPEDIATYYCQQAHSYPFTFGGGTKLEIKRTVAAPSVFIFPPSDEQLKSGTASVVCLLNNFYPREAKVQWKVDNALQSGNSQESVTEQDSKDSTYSLSSTLTLSKADYEKHKVYACEVTHQGLSSPVTKSFNRGEC
For B5, in assay [2], binding was put at a Kd of 2.32 pM.

B6: sLC-Tandem-(anti-IL4xanti-IL13)-His8-PCL1-huIgG1 with Furin-KDEL, IL4 arm (antibody)
chain 1: not shown
chain 2: DIQMTQSPASLSVSVGDTITLTCHASQNIDVWLSWFQQKPGNIPKLLIYKASNLHTGVPSRFSGSGSGTGFTLTISSLQPEDIATYYCQQAHSYPFTFGGGTKLEIKRTVAAPSVFIFPPSDEQLKSGTASVVCLLNNFYPREAKVQWKVDNALQSGNSQESVTEQDSKDSTYSLSSTLTLSKADYEKHKVYACEVTHQGLSSPVTKSFNRGEC
In assay [2], B6 gave a Kd of 1.86 pM.
